Results taken from patent US20100297683A1 (QUEEN MARY AND WESTFIELD COLLEGE, published 2010).
Ends that are not written are not given here.

Tests used:
[1] = system: T1, AAPVAAK cross-linked dextran hydrogel
T1 sequence: AAPVAAK

[2] = system: T2, AAPFFK cross-linked dextran hydrogel
T2 sequence: AAPFFK

[3] = target: T3, BSA (UniProt P02769 25-607); test: QCM admittance (mass, delta XL) on peptide hydrogel film
T3 construct: Control protein added instead of HNE

[4] = target: T4, Ala-Ala-Pro-Val-Ala-Ala-Lys-NH2 (AAPVAAK) peptide cross-linker in acrylamide hydrogel film (not fully specified)
T4 chain: AAPVAAK

[5] = target: T5, AAPVAAK cross-linked dextran hydrogel (not fully specified)
T5 chain: AAPVAAK

[6] = target: T6, AAPFFK cross-linked dextran hydrogel
T6 chain: AAPFFK

T3 sequence (P02769 25-607 limits assumed): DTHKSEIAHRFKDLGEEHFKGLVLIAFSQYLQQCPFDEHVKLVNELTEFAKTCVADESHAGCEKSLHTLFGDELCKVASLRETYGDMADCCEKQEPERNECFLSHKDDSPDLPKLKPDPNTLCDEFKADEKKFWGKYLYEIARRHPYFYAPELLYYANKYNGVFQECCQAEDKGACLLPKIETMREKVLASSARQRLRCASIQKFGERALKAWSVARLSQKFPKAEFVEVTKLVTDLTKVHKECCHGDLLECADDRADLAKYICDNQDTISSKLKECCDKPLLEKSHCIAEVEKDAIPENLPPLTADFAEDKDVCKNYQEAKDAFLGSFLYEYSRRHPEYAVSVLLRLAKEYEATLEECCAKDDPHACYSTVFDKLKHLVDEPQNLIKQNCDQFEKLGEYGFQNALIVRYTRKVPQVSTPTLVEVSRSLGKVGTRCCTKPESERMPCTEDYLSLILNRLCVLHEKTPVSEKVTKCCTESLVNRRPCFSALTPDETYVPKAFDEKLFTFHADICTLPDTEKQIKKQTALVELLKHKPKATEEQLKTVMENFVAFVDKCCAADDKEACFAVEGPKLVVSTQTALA

cathepsin G
degradation of hydrogel film monitored by QCM, 100 mU cathepsin G [1]: slow degradation was observed, indicating some minor cross-sensitivity
degradation of hydrogel film monitored by QCM resonant frequency, 100 mU/ml cathepsin G [2]: Cathepsin G caused the films to degrade resulting in an increase in resonant frequency

B1: Ala-Ala-Pro-Val-Ala-Ala-Lys-NH2 (AAPVAAK) peptide cross-linker in acrylamide hydrogel film (peptide)
peptide: AAPVAAK-NH2
modifications: not fully specified (N-terminus); printed as Ala-Ala-Pro-Val-Ala-Ala-Lys-NH2; also: both ends capped with acryloyl group, copolymerised with acrylamide into hydrogel film
binding result [3]: no binding

B2: Human Neutrophil Elastase (protein)
chain: IVGGRRARPHAWPFMVSLQLRGGHFCGATLIAPNFVMSAAHCVANVNVRAVRVVLGAHNLSRREPTRQVFAVQRIFENGYDPVNLLNDIVILQLNGSATINANVQVAQLPAQGRRLGNGVQCLAMGWGLLGRNRGIASVLQELNVTVVTSLCRRSNVCTLVRGRQAGVCFGDSGSPLVCNGLIHGIASFVRGGCASGLYPDAFAPVAQFVNWIDSIIQ
change of QCM parameter delta XL (mass of the hydrogel film) after addition of HNE [4]: The gradual decrease in mass was due to the breakage of peptide bonds and the subsequent dissolution of the film resulting in mass loss from the surface of the crystal
change of QCM resistive component delta R after addition of HNE [4]: The gradual decrease was caused by the cleavage of peptide bonds and subsequent dissolution of the hydrogel by the action of the enzyme human neutrophil elastase
degradation of hydrogel film monitored by QCM resonance frequency (25% cross-linked film) [5]: After 10 min of enzyme exposure, the film was completely degraded
degradation of hydrogel film monitored by QCM resonance frequency (50% cross-linked, reduced film) [5]: the rate of degradation increased when the HNE concentration was increased
degradation of hydrogel film monitored by QCM, 10 U/ml HNE [6]: There was no noticeable degradation of the hydrogel when HNE was introduced
